Here are results for three molecules from US20230203146A1 (Boehringer Ingelheim, published 2023).

The target in test [1] is T1, FLAG-tagged cynomolgus Ang2 (cynomolgus, UniProt O15123 19-496 (human entry), limits assumed).
T1 construct: N-terminally FLAG-tagged, conditioned medium of HEK293T cells; also called cAng2; FLAG-cAng2
T1 chain: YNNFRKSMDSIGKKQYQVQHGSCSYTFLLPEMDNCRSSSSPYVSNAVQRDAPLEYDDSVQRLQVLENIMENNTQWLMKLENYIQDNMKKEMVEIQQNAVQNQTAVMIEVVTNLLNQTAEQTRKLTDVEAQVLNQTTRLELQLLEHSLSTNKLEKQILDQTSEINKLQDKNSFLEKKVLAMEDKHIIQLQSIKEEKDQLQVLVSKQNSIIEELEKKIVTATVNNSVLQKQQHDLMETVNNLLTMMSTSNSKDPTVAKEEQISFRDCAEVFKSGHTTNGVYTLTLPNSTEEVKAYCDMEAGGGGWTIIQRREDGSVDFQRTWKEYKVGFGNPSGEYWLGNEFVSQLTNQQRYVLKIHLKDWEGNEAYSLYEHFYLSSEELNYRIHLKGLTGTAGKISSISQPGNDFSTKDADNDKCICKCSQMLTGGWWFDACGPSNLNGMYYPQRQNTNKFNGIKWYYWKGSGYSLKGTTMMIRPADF
In words: competition ELISA: FLAG-cAng2 binding to coated cTie2-Fc. On the procedure: (§1) In brief, 2 μg/mL of recombinant mouse Tie2-Fc or cyno Tie2-Fc is coated overnight at 4° C. in a 96-well MaxiSorp plate (Nunc, Wiesbaden, Germany). Coated wells are blocked with a 1% casein solution.
(ELISA stands for enzyme-linked immunosorbent assay.)

The target of another test is T2, FLAG-tagged mouse Ang2 (mouse, UniProt O35608 19-496).
T2 construct: N-terminally FLAG-tagged, conditioned medium of HEK293T cells; also called mAng2; FLAG-mAng2
T2 sequence: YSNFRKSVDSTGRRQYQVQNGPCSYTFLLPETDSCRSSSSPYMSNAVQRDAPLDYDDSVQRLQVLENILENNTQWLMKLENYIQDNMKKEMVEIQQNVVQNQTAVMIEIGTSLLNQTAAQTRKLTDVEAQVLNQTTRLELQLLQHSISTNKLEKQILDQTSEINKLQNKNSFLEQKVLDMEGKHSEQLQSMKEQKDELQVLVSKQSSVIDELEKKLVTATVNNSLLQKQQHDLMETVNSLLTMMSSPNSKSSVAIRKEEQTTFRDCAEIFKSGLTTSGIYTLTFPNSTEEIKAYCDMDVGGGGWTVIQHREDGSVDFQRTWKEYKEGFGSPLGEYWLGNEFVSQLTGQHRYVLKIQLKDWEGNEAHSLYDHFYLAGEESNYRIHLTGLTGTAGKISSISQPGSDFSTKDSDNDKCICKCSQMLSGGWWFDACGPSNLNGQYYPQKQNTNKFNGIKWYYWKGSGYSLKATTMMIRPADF
The test can be described thus: competition ELISA: FLAG-mAng2 binding to coated mTie2-Fc. How it is done:
as §1

For test [2], the target named is T3, recombinant cynomolgus Ang2-FLD (cynomolgus, UniProt A0A2K5VNX6 275-496).
T3 construct: domain: FLD; also called cyno Ang2-FLD
T3 sequence: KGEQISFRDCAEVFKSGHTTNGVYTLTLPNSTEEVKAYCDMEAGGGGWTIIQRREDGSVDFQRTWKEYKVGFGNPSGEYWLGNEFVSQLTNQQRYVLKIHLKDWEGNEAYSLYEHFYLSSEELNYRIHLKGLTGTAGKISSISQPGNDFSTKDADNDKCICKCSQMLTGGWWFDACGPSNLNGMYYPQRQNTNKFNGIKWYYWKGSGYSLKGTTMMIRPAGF
In words: SPR (Biacore T100), VHH immobilized, Ang2-FLD injected. Background: In SPR one partner is held on a chip, and binding of the other changes the refractive index at the surface.

Test [3] addresses T4, recombinant mouse Ang2-FLD (mouse, UniProt O35608 275-496, limits assumed).
T4 construct: domain: FLD
T4 sequence (looked up): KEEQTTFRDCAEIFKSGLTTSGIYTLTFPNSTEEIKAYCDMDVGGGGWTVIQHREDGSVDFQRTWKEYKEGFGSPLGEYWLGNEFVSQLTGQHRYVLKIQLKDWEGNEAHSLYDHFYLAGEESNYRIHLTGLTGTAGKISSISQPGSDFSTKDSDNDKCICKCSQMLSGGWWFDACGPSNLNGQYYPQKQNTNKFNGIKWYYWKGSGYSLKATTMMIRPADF
The test is described as above.

Another test deals with T5, recombinant rat Ang2-FLD (rat, UniProt O35462 275-496, limits assumed).
T5 construct: domain: FLD
T5 sequence (looked up): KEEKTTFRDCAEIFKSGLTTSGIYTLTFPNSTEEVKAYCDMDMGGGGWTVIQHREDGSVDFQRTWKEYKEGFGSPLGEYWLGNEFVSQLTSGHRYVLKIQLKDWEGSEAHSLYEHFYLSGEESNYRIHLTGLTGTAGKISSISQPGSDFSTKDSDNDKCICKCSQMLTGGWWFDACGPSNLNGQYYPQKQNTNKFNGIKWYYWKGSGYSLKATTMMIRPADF
The test is described as above.

In test [4] the target is T6, recombinant human Ang2-FLD (human, UniProt O15123 275-496, limits assumed).
T6 construct: domain: FLD
T6 sequence (looked up): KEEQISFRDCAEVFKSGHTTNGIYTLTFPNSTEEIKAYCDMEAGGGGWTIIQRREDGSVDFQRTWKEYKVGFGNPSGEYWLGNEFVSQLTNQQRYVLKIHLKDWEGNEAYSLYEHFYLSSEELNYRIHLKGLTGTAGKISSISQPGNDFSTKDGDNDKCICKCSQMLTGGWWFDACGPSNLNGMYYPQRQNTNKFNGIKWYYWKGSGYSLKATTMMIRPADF
Described as above.

Test [5] deals with T7, FLAG-tagged recombinant human Ang1 (Alexis Biochemicals) (human, UniProt Q15389 20-498, limits assumed).
T7 construct: Bought reagent; also called hAng1; FLAG-hAng1
T7 sequence (looked up): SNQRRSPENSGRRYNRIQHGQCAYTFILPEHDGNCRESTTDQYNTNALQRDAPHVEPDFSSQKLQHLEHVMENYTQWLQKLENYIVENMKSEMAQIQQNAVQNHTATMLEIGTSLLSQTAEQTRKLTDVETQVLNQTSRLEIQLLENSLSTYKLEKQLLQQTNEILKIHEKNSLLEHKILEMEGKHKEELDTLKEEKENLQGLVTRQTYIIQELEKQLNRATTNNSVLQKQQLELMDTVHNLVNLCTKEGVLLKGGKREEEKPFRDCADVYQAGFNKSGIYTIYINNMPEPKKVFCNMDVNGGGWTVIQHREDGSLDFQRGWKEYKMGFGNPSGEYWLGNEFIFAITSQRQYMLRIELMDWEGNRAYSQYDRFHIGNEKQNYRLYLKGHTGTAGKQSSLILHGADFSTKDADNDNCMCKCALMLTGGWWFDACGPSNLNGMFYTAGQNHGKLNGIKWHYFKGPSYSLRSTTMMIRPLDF
In words: ratio of IC50 in hAng1/hTie2 ELISA to IC50 in hAng2/hTie2 ELISA. How it is done:
In brief, 2 μg/mL of Tie2/Fc chimera (R&D Systems, Minneapolis, Minn., USA) is coated in a 96-well MaxiSorp plate (Nunc, Wiesbaden, Germany).
In brief, 2 μg/mL of recombinant human Tie2-Fc (R&D Systems, Minneapolis, Minn., USA) is coated overnight at 4° C. in a 96-well MaxiSorp plate (Nunc, Wiesbaden, Germany). Coated wells are blocked with a 1% casein solution.

For test [6], the target named is T8, N-terminally FLAG-tagged mouse Ang2 (HEK293T conditioned medium) (mouse, UniProt O35608 19-496).
T8 construct: may be a nucleotide entry; also called mAng2; FLAG-mAng2
T8 sequence: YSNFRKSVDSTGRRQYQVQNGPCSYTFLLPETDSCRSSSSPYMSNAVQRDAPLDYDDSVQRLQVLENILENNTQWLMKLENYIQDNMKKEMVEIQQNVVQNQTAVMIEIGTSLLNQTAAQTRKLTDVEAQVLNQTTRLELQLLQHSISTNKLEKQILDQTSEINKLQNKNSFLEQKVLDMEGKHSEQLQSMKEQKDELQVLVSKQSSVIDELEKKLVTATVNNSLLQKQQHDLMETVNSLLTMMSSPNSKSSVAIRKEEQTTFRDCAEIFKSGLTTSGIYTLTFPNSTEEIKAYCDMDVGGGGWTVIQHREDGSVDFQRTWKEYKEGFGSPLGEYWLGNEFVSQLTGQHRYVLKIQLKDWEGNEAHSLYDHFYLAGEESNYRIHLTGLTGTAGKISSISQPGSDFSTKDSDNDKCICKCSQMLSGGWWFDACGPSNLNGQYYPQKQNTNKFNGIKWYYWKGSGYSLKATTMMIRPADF
The test can be described thus: competition ELISA, FLAG-mAng2 on coated mTie2-Fc. How it is done: as §1

Test [7] deals with T9, N-terminally FLAG-tagged cynomolgus Ang2 (HEK293T conditioned medium) (cynomolgus, UniProt O15123 19-496 (human entry), limits assumed).
T9 construct: may be a nucleotide entry; also called cAng2; FLAG-cAng2
T9 chain: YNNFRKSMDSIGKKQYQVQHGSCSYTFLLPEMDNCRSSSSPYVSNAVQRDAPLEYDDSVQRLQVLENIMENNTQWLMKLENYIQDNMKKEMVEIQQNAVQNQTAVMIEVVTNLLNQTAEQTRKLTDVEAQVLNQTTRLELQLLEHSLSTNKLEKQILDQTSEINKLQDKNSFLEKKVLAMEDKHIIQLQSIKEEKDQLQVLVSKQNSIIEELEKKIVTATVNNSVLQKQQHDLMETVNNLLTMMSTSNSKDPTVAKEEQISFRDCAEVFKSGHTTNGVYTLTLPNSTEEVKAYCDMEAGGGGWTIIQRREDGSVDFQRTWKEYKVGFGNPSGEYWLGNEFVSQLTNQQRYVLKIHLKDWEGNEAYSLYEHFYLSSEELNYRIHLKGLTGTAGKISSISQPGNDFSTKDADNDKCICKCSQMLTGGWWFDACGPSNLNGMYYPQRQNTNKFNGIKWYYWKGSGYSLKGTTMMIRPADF
The test can be described thus: competition ELISA, FLAG-cAng2 on coated cTie2-Fc. How it is done: as §1

B1: VHH 00938 (VHH, not shown: small tags and cut ends)
VHH: EVQLVESGGGLVQPGGSLRLSCAVSGITLDDYAIGWFRQAPGKEREGVSAIRSSGGSTYYADSVKGRFTISSDNSKNTVYLQMNSLRPEDTAVYYCAAVPAGRLRYGEQWYPIYEYDAWGQGTLVTVSS
notes: Cycle 3 variant of 28D10 on the 00908 backbone
In the case of B1, the concentration for half-maximal inhibition (IC50) was 0.091 nM in test [1] and 0.055 nM with FLAG-tagged mouse Ang2. Further, the Kd in test [2] came to 8.7 pM; in test [3], 0.05 nM; with recombinant rat Ang2-FLD, 0.14 nM; in [4], 0.017 nM. Moreover, the koff turned out to be 2.2e-05 s⁻¹ in [2], 5.6e-05 s⁻¹ in test [3], 7.2e-05 s⁻¹ with recombinant rat Ang2-FLD and 2.8e-05 s⁻¹ in [4]. Moreover, the association rate constant (kon) came out at 2.6e+06 M⁻¹ s⁻¹ in [2], 1.1e+06 M⁻¹ s⁻¹ in test [3], 510000 M⁻¹ s⁻¹ with recombinant rat Ang2-FLD and 1.6e+06 M⁻¹ s⁻¹ in test [4].

B2: VHH 37A09 (VHH)
VHH: EVQLMESGGGLVQPGGSLRLSCAASGFALDYYAIGWFRQVPGKEREGVSCISSSDGITYYVDSVKGRFTISRDNAKNTVYLQMNSLKPGDTAVYYCATDSGGYIDYDCMGLGYDYWGQGTQVTVSS
notes: also called 037A09; not shown: C-terminal c-myc tag and His6 tag
B2: in test [5], the hAng1/hAng2 ratio was above 100000. Moreover, the results for the IC50 in test [6] and in [7] were 0.1 nM and 0.2 nM, respectively.

B3: VHH 37F02 (VHH)
VHH: EVQLVESGGGLVQPGGSLRLSCAASGFALDYYAIGWFRQAPGKEREGVSCISSSDGITYYVDSVKGRFTISRDNAKNTVYLQMNSLKPEDTAVYYCATDSGGYIDYDCMGLGYDYWGQGTQVTVSS
notes: also called 037F02; not shown: C-terminal c-myc tag and His6 tag
In the case of B3, in test [5], the hAng1/hAng2 ratio was above 100000. Moreover, the IC50 in test [6] was 0.09 nM; in test [7], 0.1 nM.

Usually IC50 stands for the midpoint of a concentration-inhibition curve. The low end stands for greater potency, the high end for weaker potency. By Kd is commonly meant the equilibrium constant for the complex coming apart. The koff is the first-order rate constant of dissociation. A word on the kon: it is the second-order rate constant of association.
